The subject of the data set is O=[N+]([O-])c1ccc(OP(=O)(O)O)cc1. The experiment in a line: Alkaline phosphatase kinetic constants (substrate hydrolysis). It is filed as biochemical, Escherichia coli. Conditions: other: Table 1; substrate not named, e.g. p-nitrophenyl phosphate.

Description: The analyses for specific activity and temperature stability were performed on highly purified protein material. In brief, the purification process involved the release of the periplasmic protein by the formation of spheroplasts, ammonium sulphate precipitation and chromatofocusing chromatography. […] Temperature stability was measured by monitoring the decay of enzyme activity at different temperatures.

As for “E. coli alkaline phosphatase variant pMA116, Lys^328 > Arg / Val^99 > Ala (Escherichia coli K-12; K350R/V121A)”, the Km was found to be 74 µM.

The record behind these values is patent EP0651783B1, “ALKALINE PHOSPHATASE ENZYME HAVING IMPROVED SPECIFIC ACTIVITY FOR USE IN INDICATOR REAGENTS” (ABBOTT LABORATORIES, priority 1992, dated 1994).
